Assay results published in patent US20250269048A1 (BIVICTRIX, published 2025).
Substitutions are numbered along the chain they refer to. Where two headings read alike, the source gives them in different places. Each block holds one binder with its values, some of them ahead of it.

Assays:
[1] = biological target: T1, human CD7 (human, UniProt P09564 26-180, limits assumed); assay: SPR; reference 7-PP-1 WT
T1 construct: The construct is not described
T1 sequence (looked up): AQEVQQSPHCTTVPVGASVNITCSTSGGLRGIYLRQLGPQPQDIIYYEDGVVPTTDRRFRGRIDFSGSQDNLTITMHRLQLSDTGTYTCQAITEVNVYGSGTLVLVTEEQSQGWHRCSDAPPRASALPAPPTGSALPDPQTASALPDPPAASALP

[2] = biological target: T2, human CD7 on cells (human, UniProt P09564 26-240); assay: FACS; cells not named
T2 construct: whole, on cells; Target of the FACS and cell capture values and of the kill assays on CD7 single positive cells; also called CD7+ cells; Jurkat (CD33-/CD7+)
T2 sequence (looked up): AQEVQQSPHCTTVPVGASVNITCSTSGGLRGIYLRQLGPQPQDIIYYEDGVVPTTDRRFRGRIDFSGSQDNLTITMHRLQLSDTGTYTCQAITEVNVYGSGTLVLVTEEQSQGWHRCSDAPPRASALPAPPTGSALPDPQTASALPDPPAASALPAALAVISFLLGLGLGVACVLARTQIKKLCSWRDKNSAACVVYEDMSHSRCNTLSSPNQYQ

[3] = biological target: T2, human CD7 on cells; assay: cell capt. exp.; set-up: unit not given here
[4] = biological target: T1, human CD7; assay: SPR
[5] = biological target: T2, human CD7 on cells; assay: FACS; reference 7-PP-1 WT
[6] = biological target: T1, human CD7; assay: SPR; reference 7-AA-WT
[7] = biological target: T1, human CD7; assay: SPR (Kd); value of the CD7 arm 7-PP-1 WT
[8] = biological target: T3, human CD33 (human, UniProt P20138 18-259, limits assumed); assay: SPR (Kd); value of the CD33 arm 33-PP-4
T3 construct: The construct is not described

[9] = biological target: T1, human CD7; assay: SPR (Kd); value of the CD7 arm 7-PP-13
[10] = biological target: T4, human CD33 on cells (human, UniProt P20138 18-364); assay: FACS; cells not named
T4 construct: whole, on cells; also called CD33+ cells; MV4.11 (CD7-/CD33+)

[11] = biological target: T3, human CD33; assay: SPR
[12] = biological target: T3, human CD33; assay: SPR (Kd); value of the CD33 arm 33-PP-1 WT
[13] = biological target: T1, human CD7; assay: SPR (Kd); value of the CD7 arm 7-PP-3
[14] = biological target: T3, human CD33; assay: SPR (Kd); value of the CD33 arm 33-PP-7
[15] = biological target: T1, human CD7; assay: SPR (Kd); value of the CD7 arm 7-PP-2
[16] = biological target: T3, human CD33; assay: SPR; reference 33-PP-1 WT
[17] = biological target: T1, human CD7; assay: SPR (Kd); value of the CD7 arm 7-PP-6
[18] = biological target: T1, human CD7; assay: SPR (Kd); value of the CD7 arm 7-PP-8
[19] = biological target: T1, human CD7; assay: SPR (Kd); value of the CD7 arm 7-PP-7

T4 sequence (P20138 18-364): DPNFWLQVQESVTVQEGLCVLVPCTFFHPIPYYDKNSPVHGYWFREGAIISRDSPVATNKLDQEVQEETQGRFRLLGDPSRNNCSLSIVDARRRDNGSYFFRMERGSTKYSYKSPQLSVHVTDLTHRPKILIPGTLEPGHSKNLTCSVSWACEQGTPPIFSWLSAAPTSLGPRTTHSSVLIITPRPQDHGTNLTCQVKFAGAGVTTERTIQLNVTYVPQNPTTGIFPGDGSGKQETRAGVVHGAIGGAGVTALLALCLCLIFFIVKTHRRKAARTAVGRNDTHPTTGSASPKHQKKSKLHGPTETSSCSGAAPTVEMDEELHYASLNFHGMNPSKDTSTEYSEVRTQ
T3 sequence (P20138 18-259 limits assumed): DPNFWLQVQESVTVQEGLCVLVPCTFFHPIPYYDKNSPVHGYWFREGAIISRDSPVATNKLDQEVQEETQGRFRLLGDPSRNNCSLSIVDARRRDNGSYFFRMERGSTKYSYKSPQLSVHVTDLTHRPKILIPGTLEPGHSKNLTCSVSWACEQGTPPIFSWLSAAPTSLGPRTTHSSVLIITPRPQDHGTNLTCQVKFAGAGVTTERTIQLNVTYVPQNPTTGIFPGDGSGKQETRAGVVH

Fold Reduction in binding affinity compared to PP WT (Kd) [1]: 20.3 fold | FACS binding [2]: 28.4 | Affinity from cell capt. exp. [3]: 46 | Kd [4]: 44.5 nM | Kd ([4]; record 2): 72.2 nM | FACS fold reduction compared to PP WT [5]: 53.2 fold | Fold Reduction in binding affinity compared to WT (Kd) [6]: 17 fold | Fold Reduction in binding affinity compared to WT (Kd) ([6]; record 2): 27.5 fold
B1: CD7-PP-13 CD7 binding arm (Fab, V domains shown)
VH: QVQLQESGAELVKPGASVKLSCKASGYTFTSYWMHWVKQRPGQGLEWIGKINPSNGRTNYNEKFKSKATLTVDKSSSTAYMQLSSLTSEDSAVYYCARGGVYYDLYYAALDYWGQGTTVTVSS
VL: DIELTQSPATLSVTPGDSVSLSCRASQSISNNLHWYQQKSHESPRLLIKSASQSISGIPSRFSGSGSGTDFTLSINSVETEDFGMYFCQQSNSWPYTFGGGTKLEIKR
notes: Heavy chain CDR3 Tyr108Ala; also called 7-PP-13 (mut_17-AA-1)

Fold reduction in binding affinity vs 7-PP-1 WT [7]: 0 fold | Fold reduction in binding affinity vs 33-PP-1 WT [8]: 38.8 fold
B2: BVX101 (bispecific antibody)
heavy: QVQLQESGAELVKPGASVKLSCKASGYTFTSYWMHWVKQRPGQGLEWIGKINPSNGRTNYNEKFKSKATLTVDKSSSTAYMQLSSLTSEDSAVYYCARGGVYYDLYYYALDYWGQGTTVTVSSASTKGPSVFPLAPSSKSTSGGTAALGCLVKDYFPEPVTVSWNSGALTSGVHTFPAVLQSSGLYSLSSVVTVPSSSLGTQTYCCNVNHKPSNTKVDKKVEPKSCDKT
light: DIELTQSPATLSVTPGDSVSLSCRASQSISNNLHWYQQKSHESPRLLIKSASQSISGIPSRFSGSGSGTDFTLSINSVETEDFGMYFCQQSNSWPYTFGGGTKLEIKRTVAAPSVFIFPPSDEQLKSGTASVVCLLNNFYPREAKVQWKVDNALQSGNSQESVTEQDSKDSTYSLSSTLTLSKADYEKHKVYACEVTHQGLSSPVTKSFNRGEC
VH: EVQLVQSGAEVKKPGSSVKVSCKASGYTITDSNIHWVRQAPGQSLEWIGYIYPYNGGTDYNQKFKNRATLTVDNPTNTAYMELSSLRSEDTAFYYCVNGNPYLAYWGQGTLVTVSS
VL: DIQLTQSPSTLSASVGDRVTIICRASESLDNYGIRFLTWFQQKPGKAPKLLMYAASNQGSGVPSRFSGSGSGTEFTLTISSLQPDDFATYYCQQTKEVPWSFGQGTKLEIK
notes: bi-Fab; also called CD33-PP-4/CD7-PP-1 WT

Fold reduction in binding affinity vs 7-PP-1 WT [9]: 20.3 fold | Fold reduction in binding affinity vs 33-PP-1 WT [8]: 39 fold
B3: BVX161 (bispecific antibody)
heavy: B2 heavy with Y108A
light: B2 light
VH: B2 VH
VL: B2 VL
notes: bi-Fab; also called CD33-PP-4/CD7-PP-13

FACS binding [10]: 0.16 nM | Kd [11]: 1.36 nM
B4: CD33-PP-1-WT binding arm (Fab, V domains shown)
VH: B2 VH with Y102W
VL: B2 VL

Fold reduction in binding affinity vs 33-PP-1 WT [12]: 0 fold | Fold reduction in binding affinity vs 7-PP-1 WT [13]: 9.1 fold
B5: BVX120 (bispecific antibody)
heavy: B2 heavy with R57K
light: B2 light
VH: B2 VH with Y102W
VL: B2 VL
notes: bi-Fab; also called CD33-PP-1 WT/CD7-PP-3

Fold reduction in binding affinity vs 33-PP-1 WT [14]: 68 fold | Fold reduction in binding affinity vs 7-PP-1 WT [7]: 0 fold
B6: BVX102 (bispecific antibody)
heavy: B2 heavy
light: B2 light
VH: B2 VH with Y105A
VL: B2 VL
notes: bi-Fab; also called CD33-PP-7/CD7-PP-1 WT

Fold reduction in binding affinity vs 7-PP-1 WT [15]: 21.3 fold | Fold reduction in binding affinity vs 33-PP-1 WT [12]: 0 fold
B7: BVX110 (bispecific antibody)
heavy: B2 heavy with R57G
light: B2 light
VH: B2 VH with Y102W
VL: B2 VL
notes: bi-Fab; also called CD33-PP-1 WT/CD7-PP-2

FACS binding [10]: 464 nM | Fold Reduction in binding affinity compared to 33-PP-1 WT (Kd, nM) [16]: 67.9 fold | Kd [11]: 92.3 nM
B8: CD33-PP-7 binding arm (Fab, V domains shown)
VH: B2 VH with Y105A
VL: B2 VL

Fold reduction in binding affinity vs 33-PP-1 WT [12]: 0 fold | Fold reduction in binding affinity vs 7-PP-1 WT [17]: 12.7 fold
B9: BVX130 (bispecific antibody)
heavy: B2 heavy with D104A
light: B2 light
VH: B2 VH with Y102W
VL: B2 VL
notes: bi-Fab; also called CD33-PP-1 WT/CD7-PP-6

Fold reduction in binding affinity vs 33-PP-1 WT [12]: 0 fold | Fold reduction in binding affinity vs 7-PP-1 WT [18]: 64.3 fold
B10: BVX150 (bispecific antibody)
heavy: B2 heavy with R57K, Y108A
light: B2 light
VH: B2 VH with Y102W
VL: B2 VL
notes: bi-Fab; also called CD33-PP-1 WT/CD7-PP-8

FACS binding [10]: 321 nM | Fold Reduction in binding affinity compared to 33-PP-1 WT (Kd, nM) [16]: 38.8 fold | Kd [11]: 52.7 nM
B11: CD33-PP-4 binding arm (Fab, V domains shown)
VH: B2 VH
VL: B2 VL

Fold reduction in binding affinity vs 33-PP-1 WT [14]: 68 fold | Fold reduction in binding affinity vs 7-PP-1 WT [18]: 87 fold
B12: BVX152 (bispecific antibody)
heavy: B2 heavy with R57K, Y108A
light: B2 light
VH: B2 VH with Y105A
VL: B2 VL
notes: bi-Fab; also called CD33-PP-7/CD7-PP-8

Fold reduction in binding affinity vs 33-PP-1 WT [12]: 0 fold | Fold reduction in binding affinity vs 7-PP-1 WT [19]: 152 fold
B13: BVX140 (bispecific antibody)
heavy: B2 heavy with R57G, Y108A
light: B2 light
VH: B2 VH with Y102W
VL: B2 VL
notes: bi-Fab; also called CD33-PP-1 WT/CD7-PP-7
